Assay [1] has as its target F protein of HMPV genogroup A1 strain (virus in plaque reduction assay) (human metapneumovirus) (UniProt Q6WB98). Briefly: cell-based or functional assay.
In assay [2] the target is F protein of HMPV genogroup A2 strain (virus in plaque reduction assay) (human metapneumovirus) (UniProt Q6WB98). The assay is described as follows: cell-based or functional assay.
Assay [3] has as its target F protein of HMPV genogroup B1 strain (virus in plaque reduction assay) (human metapneumovirus) (UniProt Q6WB98). Briefly: cell-based or functional assay.
In assay [4] the target is F protein of HMPV genogroup B2 strain (virus in plaque reduction assay) (human metapneumovirus) (UniProt Q6WB98). Briefly: cell-based or functional assay.
In assay [5] the target is HMPV F ectodomain lacking the transmembrane domain (FΔTM), 6xHis-tagged, strain TN/92-4 (genogroup A2) (human metapneumovirus). The assay is described as follows: SPR (BIAcore 2000), HMPV FΔTM immobilized, 1:1 Langmuir fit.

A value given as a limit tells only on which side of the number the result lay.

By Kd is commonly meant the constant that tells how readily two partners part at equilibrium. A low value points to tighter binding. Broadly, the koff is the rate constant with which the complex falls apart. Low readings indicate a long-lived complex, high ones a short-lived complex. For Fab DSλ7, in assay [1], the Neut. Conc. (60% plaque reduction), A1 amounted to 9.8 µg/mL and the Neut. Dilution (60% plaque reduction), A1 (dilution (1:x)) is 120. In assay [2], the Neut. Conc. (60% plaque reduction) was 1.1 µg/mL; the Neut. Conc. (60% plaque reduction), A2 came to 1.1 µg/mL; the Neut. Dilution (60% plaque reduction) (dilution (1:x)) stood at 1110; the Neut. Dilution (60% plaque reduction), A2 (dilution (1:x)) came out at 1040. Besides, in assay [3], the Neut. Conc. (60% plaque reduction), B1 is 2.4 µg/mL and the Neut. Dilution (60% plaque reduction), B1 (dilution (1:x)) was 488. This substance also gave a Neut. Dilution (60% plaque reduction), B2 (dilution (1:x)) in assay [4] below 20. In assay [5], this substance came in with a Kd of 0.984 nM and a koff of 3.48e-05 s⁻¹.
